Laboratory results reported in publication PMC5431086, “The Rational Design of Therapeutic Peptides for Aminopeptidase N using a Substrate-Based Approach” (Scientific Reports, 2017).

Target: recombinant human aminopeptidase N (hAPN) (human) (UniProt P15144)
Experiment: enzyme inhibition assay (competition with the fluorogenic substrate H-Ala-AMC); 0.1 μM APN, 100 μM H-Ala-AMC, 100 mM Tris pH 7.2, Brij 35 0.0002% w/v, 37 °C, triplicate; inhibition competitive, Ki from the IC50 by the Cheng-Prusoff equation

Row | Ki | IC50 | Substance
1 | > 500 µM | – | cyc-nHSPW (peptide)
2 | – | > 500 µM | nDQIY (peptide)
3 | – | 6.5 µM | nHSPW (peptide)
